Some results are limits rather than exact numbers.

Experiment [1] has as its target SARS-CoV-2 wild type RBD (wt_RBD-AviHis) (SARS-CoV-2 (Wuhan/Wildtype strain)). The experiment can be described thus: BLI, biotinylated RBD, mass transport model fit. Background: In BLI a coated tip is dipped into the sample, and binding shifts an interference pattern.
For experiment [2], the target named is SARS-CoV-2 spike protein of the original Wuhan strain (SARS-CoV-2 (Wuhan/Wildtype strain), UniProt P0DTC2 14-1273). The experiment is described as follows: cell-based or functional assay.
The target of experiment [3] is SARS-CoV-2 wild type RBD (wt_RBD-AviHis) (SARS-CoV-2 (Wuhan/Wildtype strain)). The experiment can be described thus: BLI, biotinylated RBD, mass transport model fit. This is another data set of the same source.

B1: Re6H06 (VHH)
VHH: QVQLVESGGGLVQPGGSLRLSCAASGVTLDYYAIGWFRQAPGKEREGVSCTSSSDGSTYYADSVKGRFTISRDNAKNTVYLQMNSLKPEDTGVYYCAVVPQTYYGGKYYSQCTANGMDYWGKGTLVTVSS
B1 came in with an equilibrium dissociation constant (Kd) in experiment [1] of no more than 0.01 nM.

B2: Re5D06 (VHH)
VHH: QVQLVESGGGLVQPGGSLRLSCAASGITLDYYAIGWFRQAPGKEREGVSRIRSSDGSTNYADSVKGRFTMSRDNAKNTVYLQMNSLKPEDTAVYYCAYGPLTKYGSSWYWPYEYDYWGQGTQVTVSS
Molecule B2 registered a dissociation constant Kd in experiment [1] of no more than 0.01 nM.

B3: Ma28D01 (VHH)
VHH: QVQLVESGGGLVQPGGSLRLSCVVSELGLDYYQIGWFRQAPGKEREGVSCFRSSDEIRYYADSVKGRFTTFRDNAGTTVYLQMNSLKPEDTGVYYCAVAPQTYYHGTWYGECAAAGMDSWGKGTQVTVSS
notes: Monomeric VHH
For B3, in experiment [2], the “Lowest virus neutralizing concentration (pM; IC99)” value turned out to be 500 pM. The same molecule had a Kd in experiment [3] of no more than 0.01 nM.

B4: Ma28F04 (VHH)
VHH: QVQLVESGGGLVQPGGSLRLSCVVSDLGLDYYQIGWFRQAPGKEREGVSCFRSSDEIRYYADPVKGRFTTFRDNAGTTVYLQMNSLKPEDTGVYYCAVAPQTYYHGTWYGECAAAGMDSWGKGTLVTVSS
notes: Monomeric VHH
For B4, in experiment [2], the “Lowest virus neutralizing concentration (pM; IC99)” value was determined as 500 pM. Besides, the Kd in experiment [3] is no more than 0.01 nM.

B5: Re9B09 (VHH)
VHH: QVQLVESGGGLVQPGGSLRLSCAASGFTLDYYAIGWFRQAPGKEREGVSRISSSDGSTDYADSVKGRFTISRDNAKNTVYLQMNSLKPEDTAVYYCATVPGTYYSGNWYYTWHPEAVDYWGKGTQVTVSS
In the case of B5, binding in experiment [1] was put at a Kd of 0.03 nM.

B6: Ma16B06 (VHH)
VHH: QVQLVESGGGLVRTGGSLRLSCAASGSILQIWAMKWYRQAPGLQREWIATIPNSGEPFYASSVEGRFTGSRENEETVYLYLNNLEPEDTAVYYCEVNEGVPVREYWGQGTQVTVSS
notes: Monomeric VHH; also called VHH Ma16B06
On to B6, for which the “Lowest virus neutralizing concentration (pM; IC99)” value in experiment [2] stood at 1700 pM. The dissociation constant Kd in experiment [3] was no more than 0.01 nM.

B7: Re32D03 (VHH)
VHH: QVQLVESGGGLVQPGGSLRLSCAISGITLDYYAVGWFLQAPGKEREGISCMRNWDGRTVYAPSVKGRFTISSDNAKKMVYLEMDNLKSEDTGVYYCAAGPLPPGISCRIPTPLGYDDWGQGTQVTVSS
With B7, the Kd in experiment [1] is no more than 0.01 nM.

B8: Ma28H11 (VHH)
VHH: QVQLVESGGGLVQPGGSLRLSCATSGLTLDHYAIGWFLQAPGKEREGVACVSDDERSLYAPSVMGRFSISRDNAKKTFYLEMNSLKPEDTGVYYCASGPVVPGTLCRIPTVLGYDDWGQGTQVTVSS
notes: Monomeric VHH; also called M28H11
Turning to B8, in experiment [2], the “Lowest virus neutralizing concentration (pM; IC99)” value was found to be 170 pM. Moreover, in experiment [3], the dissociation constant Kd is no more than 0.01 nM.

The Kd is the constant that tells how readily two partners part at equilibrium.

(Values after patent EP4375293A1 (Max-Planck-Gesellschaft zur Förderung der Wissenschaften …, dated 2024).)
